The text below walks through data of patent publication US20120316071A1 (published 2012).

Residue numbers refer to the chain shown, from its start. Names and notes keep the numbering of the source.

Test [1] has as its target T1, Recombinant Human DLL4 (R&D Systems Cat#1506-D4/CF) (human, UniProt Q9NR61 27-524).
T1 construct: Bought recombinant protein; also called delta-like protein 4; rHuman DLL4
The experiment in a line: ECL multispot (MSD) binding assay; DLL4 spotted on the plate, purified Fab added.

In test [2] the target is T1, Recombinant Human DLL4 (R&D Systems …). The experiment in a line: ECL multispot (MSD) binding assay; DLL4 signal over blank spot.
The target of test [3] is T2, rHuman Notch-1/Fc Chimera (human, UniProt P46531 19-526).
T2 construct: Bought from R&D Systems (Cat#3647-TK)
The experiment in a line: ECL multispot (MSD) binding assay; antigen spotted on plate, Fab in solution.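 Note: purified Fab bound for 1 h at 20 °C, detected with a TAG-labelled antibody, electrochemiluminescence compared with each well's blank, signal-to-blank ratio of at least 4 scored as hit.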

Test [4] deals with T3, rHuman Erythropoietin R/Fc Chimera (human, UniProt P19235 25-250).
T3 construct: also called EPO R; EPO R/Fc
T3 sequence (looked up): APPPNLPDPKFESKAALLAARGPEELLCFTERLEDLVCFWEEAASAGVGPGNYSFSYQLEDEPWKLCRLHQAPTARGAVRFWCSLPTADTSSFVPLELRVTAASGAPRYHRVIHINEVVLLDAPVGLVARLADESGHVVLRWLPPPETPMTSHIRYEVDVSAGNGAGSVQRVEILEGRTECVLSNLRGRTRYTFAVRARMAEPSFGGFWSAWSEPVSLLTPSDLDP
The description is as above.

The target in another test is rHuman ErbB2/Fc Chimera (human, UniProt P04626 23-652). Described as above.
In test [5] the target is T4, rHuman HGF R/c-MET/Fc Chimera (human, UniProt P08581 25-932).
T4 construct: also called HGF R/Fc
The description is as above.

For the next test, the target named is rHuman CD44/Fc Chimera (human, UniProt P16070 21-220). Described as above.
For test [6], the target named is T5, rHuman P-Cadherin/Fc Chimera (human, UniProt P22223 108-654).
T5 construct: Bought from R&D Systems (Cat#861-PC)
The test is described as above.

In test [7] the target is T6, Recombinant Human DLL4 (delta-like protein 4) (human, UniProt Q9NR61 27-529).
T6 construct: Bought from R&D Systems (Cat#1506-D4/CF); also called rHuman DLL4
Described as above.

Test [8] addresses rHuman IGF-1 sR (insulin-like growth factor-1 soluble receptor) (human, UniProt P08069 31-932). Described as above.
Another test addresses rHuman EGF R/Fc Chimera (human, UniProt P00533 25-645). Described as above.

T4 sequence (P08581 25-932, change not shown): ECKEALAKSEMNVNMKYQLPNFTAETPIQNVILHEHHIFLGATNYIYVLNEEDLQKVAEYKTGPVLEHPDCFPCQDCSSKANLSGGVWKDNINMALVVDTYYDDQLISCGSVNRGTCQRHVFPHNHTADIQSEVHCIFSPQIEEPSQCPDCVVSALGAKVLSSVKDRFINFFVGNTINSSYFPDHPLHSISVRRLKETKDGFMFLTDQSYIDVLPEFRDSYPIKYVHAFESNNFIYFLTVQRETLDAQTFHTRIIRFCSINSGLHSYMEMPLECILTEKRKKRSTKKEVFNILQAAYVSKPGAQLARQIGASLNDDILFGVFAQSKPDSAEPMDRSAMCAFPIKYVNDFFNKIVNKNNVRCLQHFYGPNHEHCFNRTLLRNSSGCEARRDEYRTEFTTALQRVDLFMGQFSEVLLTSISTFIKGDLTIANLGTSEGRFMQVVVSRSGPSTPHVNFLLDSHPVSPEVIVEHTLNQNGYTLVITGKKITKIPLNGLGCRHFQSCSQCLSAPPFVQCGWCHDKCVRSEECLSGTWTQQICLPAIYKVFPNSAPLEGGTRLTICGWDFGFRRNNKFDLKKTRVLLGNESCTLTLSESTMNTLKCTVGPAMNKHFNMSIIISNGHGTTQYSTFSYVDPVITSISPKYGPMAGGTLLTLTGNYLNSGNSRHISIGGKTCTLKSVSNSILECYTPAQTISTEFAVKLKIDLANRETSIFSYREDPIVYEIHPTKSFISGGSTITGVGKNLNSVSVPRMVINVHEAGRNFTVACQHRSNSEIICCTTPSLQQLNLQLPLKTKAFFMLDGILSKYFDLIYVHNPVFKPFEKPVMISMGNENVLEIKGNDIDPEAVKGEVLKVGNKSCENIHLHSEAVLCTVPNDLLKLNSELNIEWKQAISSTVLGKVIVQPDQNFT

B1: Fab VH1-46_IGHD6-6*01_IGHJ1*01 S102A/S103P/S104F/H111F (APFF) & L6_IGKJ1*01 S92G (Fab, V domains shown)
VH: QVQLVQSGAEVKKPGASVKVSCKASGYTFTSYYMHWVRQAPGQGLEWMGIINPSGGSTSYAQKFQGRVTMTRDTSTSTVYMELSSLRSEDTAVYYCAREEYAPFSAEYFQFWGQGTLVTVSS
VL: EIVLTQSPATLSLSPGERATLSCRASQSVSSYLAWYQQKPGQAPRLLIYDASNRATGIPARFSGSGSGTDFTLTISSLEPEDFAVYYCQQRGNWPPWTFGQGTKVEIKR
notes: Fab with CH1 (His6 and Flag tags) and kappa CL from the expression vectors; also called APFF & S92G
For B1, in test [1], the “ECL signal” value is 91400 ECL counts. In [2], the Signal/Blank came to 281 ratio.

B2: Fab VH1-46_IGHD6-6*01_IGHJ1*01 S102A/S103P/S104F/H111F (APFF) & L6_IGKJ1*01 S92C (Fab, V domains shown)
VH: B1 VH
VL: B1 VL with G92C
notes: Tested as Fab made in E. coli: VH cloned into Plasmid A (CH1, His6 and Flag tags), kappa VL into Plasmid C (kappa CL); also called APFF / S92C
In the case of B2, the ECL signal in test [3] was 642; in test [4], 742; with rHuman ErbB2/Fc Chimera it was 526; in [5], 589; in the test with rHuman CD44/Fc Chimera, 554; in test [6], 805. In addition, the ECL signal in [7] was found to be 1230; in [8], 642; with rHuman EGF R/Fc Chimera, 588.

B3: Fab VH1-46_IGHD6-6*01_IGHJ1*01 S102A/S103P/S104F/H111F (APFF) & L6_IGKJ1*01 (Fab, V domains shown)
VH: B1 VH
VL: not shown
notes: Tested as Fab (CH1 with His6/Flag tags from Plasmid A; kappa CL from Plasmid C); also called APFF / parent; H:APFF & L:wt
As to B3, the ECL signal with rHuman ErbB2/Fc Chimera came out at 289; in test [5] it was 185; in test [6] it was 295; in test [7], 189000; in [8] it was 336; with rHuman EGF R/Fc Chimera, 326.
